For this assay, the target named is HSA/hEPO (83.5 Kd) (human). The experiment in a line: double-antibody sandwich ELISA (R&D Systems EPO kit), against the recombinant human EPO standard. For orientation: In an ELISA, binding on a coated surface is turned into a signal by an enzyme label.

For “anti-EPO antibodies of the EPO ELISA kit from R&D Systems (tool reagent)”, the activity compared with the standard (of the activity of the EPO standard) stood at 0.1.
